Sequences and labels used below:
B6: RapH (enzyme, B. subtilis)
chain: GSMSQAIPSSRVGVKINEWYKMIRQFSVPDAEILKAEVEQDIQQMEEDQDLLIYYSLMCFRHQLMLDYLEPGKTYGNRPTVTELLETIETPQKKLTGLLKYYSLFFRGMYEFDQKEYVEAIGYYREAEKELPFVSDDIEKAEFHFKVAEAYYHMKQTHVSMYHILQALDIYQNHPLYSIRTIQSLFVIAGNYDDFKHYDKALPHLEAALELAMDIQNDRFIAISLLNIANSYDRSGDDQMAVEHFQKAAKVSREKVPDLLPKVLFGLSWTLCKAGQTQKAFQFIEEGLDHITARSHKFYKELFLFLQAVYKETVDERKIHDLLSYFEKKNLHAYIEACARSAAAVFESSCHFEQAAAFYRKVLKAQEDILKGECLYAY
notes: two heterologous N-terminal residues (Gly-Ser) derived from the thrombin cleavage signal; RapH, B. subtilis strain 168, residues 1-376 (MW theor 44.1 kDa); Dimer in the crystal and in solution; also called RapHA; RapHB; source: E. coli BL21, purified (glutathione resin, thrombin, Source 15Q, Superdex 200; dialysis instead of gel filtration for the phosphatase and phosphotransfer assays); not …

Series [1] addresses T1, Spo0F~P (radiolabeled phosphorylated Spo0F-His) (B. subtilis) (UniProt P06628).
T1 sequence (chain, phosphoaspartate-54 (32P)): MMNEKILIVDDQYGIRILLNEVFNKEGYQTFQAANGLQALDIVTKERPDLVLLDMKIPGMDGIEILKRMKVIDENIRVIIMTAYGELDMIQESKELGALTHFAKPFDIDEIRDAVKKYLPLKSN

Series [2] deals with T1, Spo0F~P (radiolabeled phosphorylated Spo0F-His) (B. subtilis). This is another data set of the same source.
Series [3] concerns the molecule itself. Description: crystal structure; vapor diffusion at 20°C; 7.5 mg/ml RapH and 3.5 mg/ml Spo0F in 20 mM Tris-HCl (pH 8.0), 100 mM KCl, 2.5 mM DTT, 5 mM MgCl2; well 20% PEG 3350, 200 mM lithium sulphate, 100 mM Bis-Tris (pH 6.0); refined to 2.20 Å.
Series [4] deals with B6. The series is described as above. The conditions noted are these: both partners purified.
The target of series [5] is B6. The series can be described thus: crystal structure; crystals of native RapH with selenomethionyl Spo0F(D54E), as the native crystals but Bis-Tris at pH 5.8; SAD phasing, initial model at 2.70 Å; isomorphous to the native crystals. The settings on record: both partners purified.
Series [6] concerns the target T2, RapJ (B. subtilis), O34327.
T2 chain: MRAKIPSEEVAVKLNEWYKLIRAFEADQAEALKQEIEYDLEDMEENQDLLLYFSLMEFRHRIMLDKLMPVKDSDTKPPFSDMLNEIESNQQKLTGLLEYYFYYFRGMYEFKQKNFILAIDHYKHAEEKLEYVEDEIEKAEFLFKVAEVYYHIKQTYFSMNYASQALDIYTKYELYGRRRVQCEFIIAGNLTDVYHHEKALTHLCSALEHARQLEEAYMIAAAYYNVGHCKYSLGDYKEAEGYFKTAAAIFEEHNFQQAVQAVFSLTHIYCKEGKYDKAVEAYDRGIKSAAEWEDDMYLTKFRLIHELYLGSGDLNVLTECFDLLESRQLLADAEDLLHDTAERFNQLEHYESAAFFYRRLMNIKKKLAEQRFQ
Description: SEC; size exclusion chromatography with gel filtration standards; experimental against theoretical molecular weight. The settings on record: remark: other sources report otherwise.

The target in series [7] is T1, Spo0F~P (radiolabeled phosphorylated Spo0F-His) (B. subtilis). The source holds these as a separate data set.

The values below come from article PMC3035606, “Structural Basis of Response Regulator Dephosphorylation by Rap Phosphatases” (PLoS Biology, 2011).

Like-named read-outs stand apart in the source and are kept apart here.

B1: RapH-E137A (enzyme)
chain: GSMSQAIPSSRVGVKINEWYKMIRQFSVPDAEILKAEVEQDIQQMEEDQDLLIYYSLMCFRHQLMLDYLEPGKTYGNRPTVTELLETIETPQKKLTGLLKYYSLFFRGMYEFDQKEYVEAIGYYREAEKELPFVSDDIAKAEFHFKVAEAYYHMKQTHVSMYHILQALDIYQNHPLYSIRTIQSLFVIAGNYDDFKHYDKALPHLEAALELAMDIQNDRFIAISLLNIANSYDRSGDDQMAVEHFQKAAKVSREKVPDLLPKVLFGLSWTLCKAGQTQKAFQFIEEGLDHITARSHKFYKELFLFLQAVYKETVDERKIHDLLSYFEKKNLHAYIEACARSAAAVFESSCHFEQAAAFYRKVLKAQEDILKGECLYAY
B1 yielded a Spo0F~P remaining after 40 min, in vitro phosphatase assay (wild-type control 7%) (% of Spo0F~P remaining) in series [1] of 15.

B2: RapH-L50A (enzyme)
chain: GSMSQAIPSSRVGVKINEWYKMIRQFSVPDAEILKAEVEQDIQQMEEDQDLAIYYSLMCFRHQLMLDYLEPGKTYGNRPTVTELLETIETPQKKLTGLLKYYSLFFRGMYEFDQKEYVEAIGYYREAEKELPFVSDDIEKAEFHFKVAEAYYHMKQTHVSMYHILQALDIYQNHPLYSIRTIQSLFVIAGNYDDFKHYDKALPHLEAALELAMDIQNDRFIAISLLNIANSYDRSGDDQMAVEHFQKAAKVSREKVPDLLPKVLFGLSWTLCKAGQTQKAFQFIEEGLDHITARSHKFYKELFLFLQAVYKETVDERKIHDLLSYFEKKNLHAYIEACARSAAAVFESSCHFEQAAAFYRKVLKAQEDILKGECLYAY
Take B2: the Spo0F~P remaining after 30 min, in vitro phosphatase assay (wild-type control 13%) (% of Spo0F~P remaining) in series [2] is 26.

B3: RapH-D134A (enzyme)
chain: GSMSQAIPSSRVGVKINEWYKMIRQFSVPDAEILKAEVEQDIQQMEEDQDLLIYYSLMCFRHQLMLDYLEPGKTYGNRPTVTELLETIETPQKKLTGLLKYYSLFFRGMYEFDQKEYVEAIGYYREAEKELPFVSADIEKAEFHFKVAEAYYHMKQTHVSMYHILQALDIYQNHPLYSIRTIQSLFVIAGNYDDFKHYDKALPHLEAALELAMDIQNDRFIAISLLNIANSYDRSGDDQMAVEHFQKAAKVSREKVPDLLPKVLFGLSWTLCKAGQTQKAFQFIEEGLDHITARSHKFYKELFLFLQAVYKETVDERKIHDLLSYFEKKNLHAYIEACARSAAAVFESSCHFEQAAAFYRKVLKAQEDILKGECLYAY
Regarding B3, the Spo0F~P remaining after 30 min, in vitro phosphatase assay (wild-type control 3%) (% of Spo0F~P remaining) in series [1] amounted to 13.

B4: RapH-F58A (enzyme)
chain: GSMSQAIPSSRVGVKINEWYKMIRQFSVPDAEILKAEVEQDIQQMEEDQDLLIYYSLMCARHQLMLDYLEPGKTYGNRPTVTELLETIETPQKKLTGLLKYYSLFFRGMYEFDQKEYVEAIGYYREAEKELPFVSDDIEKAEFHFKVAEAYYHMKQTHVSMYHILQALDIYQNHPLYSIRTIQSLFVIAGNYDDFKHYDKALPHLEAALELAMDIQNDRFIAISLLNIANSYDRSGDDQMAVEHFQKAAKVSREKVPDLLPKVLFGLSWTLCKAGQTQKAFQFIEEGLDHITARSHKFYKELFLFLQAVYKETVDERKIHDLLSYFEKKNLHAYIEACARSAAAVFESSCHFEQAAAFYRKVLKAQEDILKGECLYAY
In series [2], B4 returned a Spo0F~P remaining after 30 min, in vitro phosphatase assay (wild-type control 3%) (% of Spo0F~P remaining) of 28.

B5: RapH-Y175A (enzyme)
chain: GSMSQAIPSSRVGVKINEWYKMIRQFSVPDAEILKAEVEQDIQQMEEDQDLLIYYSLMCFRHQLMLDYLEPGKTYGNRPTVTELLETIETPQKKLTGLLKYYSLFFRGMYEFDQKEYVEAIGYYREAEKELPFVSDDIEKAEFHFKVAEAYYHMKQTHVSMYHILQALDIYQNHPLASIRTIQSLFVIAGNYDDFKHYDKALPHLEAALELAMDIQNDRFIAISLLNIANSYDRSGDDQMAVEHFQKAAKVSREKVPDLLPKVLFGLSWTLCKAGQTQKAFQFIEEGLDHITARSHKFYKELFLFLQAVYKETVDERKIHDLLSYFEKKNLHAYIEACARSAAAVFESSCHFEQAAAFYRKVLKAQEDILKGECLYAY
The molecule B5 had a Spo0F~P remaining after 30 min, in vitro phosphatase assay (wild-type control 3%) (% of Spo0F~P remaining) in series [1] of 54.

One may read the stoichiometry N as the number of molecules, sites or subunits per partner or assembly. Regarding B6, in series [3], the “stoichiometry N” value worked out at 2.

B7: Spo0F (natural protein, B. subtilis)
chain: GSMMNEKILIVDDQYGIRILLNEVFNKEGYQTFQAANGLQALDIVTKERPDLVLLDMKIPGMDGIEILKRMKVIDENIRVIIMTAYGELDMIQESKELGALTHFAKPFDIDEIRDAVKKYLPLKSN
notes: two heterologous N-terminal residues (Gly-Ser) derived from the thrombin cleavage signal; Spo0F, B. subtilis strain 168, residues 1-124; The methods name the vector pETDuet-1 but purify over glutathione resin and remove a GST tag; also called Spo0FA; Spo0FB; source: E. coli BL21(DE3), purified (glutathione resin, thrombin, Source 15Q and HiTrap Heparin flow-through, Superdex 200); …
Consider B7, for which the binding result in series [4] is reported as “binds”.

B8: selenomethionyl Spo0F-D54E (natural protein, B. subtilis)
chain: GSMMNEKILIVDDQYGIRILLNEVFNKEGYQTFQAANGLQALDIVTKERPDLVLLEMKIPGMDGIEILKRMKVIDENIRVIIMTAYGELDMIQESKELGALTHFAKPFDIDEIRDAVKKYLPLKSN
modifications: selenomethionyl (selenomethionine derivatized)
notes: two heterologous N-terminal residues (Gly-Ser) derived from the thrombin cleavage signal; purified in an identical manner to Spo0F; Spo0F, B. subtilis strain 168, residues 1-124, with D54E; Used for SAD phasing; PDB 3Q15 holds the parent (wild-type Spo0F); source: E. coli BL21(DE3), purified as Spo0F (buffer D with 120 mM MgCl2); not shown: GST, N-terminal, cleaved
On to B8, for which the binding result in series [5] was “binds”.

B9: RapJ, O34327 1-373 (enzyme)
chain: MRAKIPSEEVAVKLNEWYKLIRAFEADQAEALKQEIEYDLEDMEENQDLLLYFSLMEFRHRIMLDKLMPVKDSDTKPPFSDMLNEIESNQQKLTGLLEYYFYYFRGMYEFKQKNFILAIDHYKHAEEKLEYVEDEIEKAEFLFKVAEVYYHIKQTYFSMNYASQALDIYTKYELYGRRRVQCEFIIAGNLTDVYHHEKALTHLCSALEHARQLEEAYMIAAAYYNVGHCKYSLGDYKEAEGYFKTAAAIFEEHNFQQAVQAVFSLTHIYCKEGKYDKAVEAYDRGIKSAAEWEDDMYLTKFRLIHELYLGSGDLNVLTECFDLLESRQLLADAEDLLHDTAERFNQLEHYESAAFFYRRLMNIKKKLAEQRFQ
For B9, the stoichiometry N in series [6] came to 2.

B10: RapF-H50L (enzyme)
chain: MTGVISSSSIGEKINEWYMYIRRFSIPDAEYLRREIKQELDQMEEDQDLLLYYSLMEFRHNLMLEYLEPLEKMRIEEQPRLSDLLLEIDKKQARLTGLLEYYFNFFRGMYELDQREYLSAIKFFKKAESKLIFVKDRIEKAEFFFKMSESYYYMKQTYFSMDYARQAYEIYKEHEAYNIRLLQCHSLFATNFLDLKQYEDAISHFQKAYSMAEAEKQPQLMGRTLYNIGLCKNSQSQYEDAIPYFKRAIAVFEESNILPSLPQAYFLITQIHYKLGKIDKAHEYHSKGMAYSQKAGDVIYLSEFEFLKSLYLSGPDEEAIQGFFDFLESKMLYADLEDFAIDVAKYYHERKNFQKASAYFLKVEQVRQLIQGGVSLYEIEV
As for B10, in series [7], the Spo0F~P remaining after 30 min, in vitro phosphatase assay (26 uM RapF); RapF-H50L dephosphorylates Spo0F (% of Spo0F~P remaining) was 16.

B11: RapF (natural protein)
chain: MTGVISSSSIGEKINEWYMYIRRFSIPDAEYLRREIKQELDQMEEDQDLHLYYSLMEFRHNLMLEYLEPLEKMRIEEQPRLSDLLLEIDKKQARLTGLLEYYFNFFRGMYELDQREYLSAIKFFKKAESKLIFVKDRIEKAEFFFKMSESYYYMKQTYFSMDYARQAYEIYKEHEAYNIRLLQCHSLFATNFLDLKQYEDAISHFQKAYSMAEAEKQPQLMGRTLYNIGLCKNSQSQYEDAIPYFKRAIAVFEESNILPSLPQAYFLITQIHYKLGKIDKAHEYHSKGMAYSQKAGDVIYLSEFEFLKSLYLSGPDEEAIQGFFDFLESKMLYADLEDFAIDVAKYYHERKNFQKASAYFLKVEQVRQLIQGGVSLYEIEV
For B11, the Spo0F~P remaining after 30 min, in vitro phosphatase assay (26 uM RapF); wild-type RapF does not dephosphorylate Spo0F (% of Spo0F~P remaining) in series [7] came to 54.
